Test results published in publication PMC7253601, “Rules of Expansion: an Updated Consensus Operator Site for the CopR-CopY Family of Bacterial Copper Exporter System Repressors” (mSphere, 2019).

B1: wild type two-operator DNA (BLI) (dsDNA)
DNA 1: TAATTGACAAATGTAGATTTTAAGAGTATACTGATGAGTGTAATTGACAAATGTAGATTTT
DNA 2: AAAATCTACATTTGTCAATTACACTCATCAGTATACTCTTAAAATCTACATTTGTCAATTA
B2: SP_0090 2 (dsDNA)
DNA 1: GAGTATACTAATAATGTAATCGTTATC
DNA 2: GATAACGATTACATTATTAGTATACTC
B3: SP_1863 (dsDNA)
DNA 1: ATGAATAAAACAATTGTAACACTCATC
DNA 2: GATGAGTGTTACAATTGTTTTATTCAT
B4: SP_0045 (dsDNA)
DNA 1: GGTGAACTAACAGATGTTTACGAAATT
DNA 2: AATTTCGTAAACATCTGTTAGTTCACC
B5: SP_0530 (dsDNA)
DNA 1: ATTTGAGGAACAAATGTACGTTTATAA
DNA 2: TTATAAACGTACATTTGTTCCTCAAAT
B6: SP_2073 (dsDNA)
DNA 1: AAGGCGGAAACATGTGTCAATGACTTG
DNA 2: CAAGTCATTGACACATGTTTCCGCCTT
B7: SP_0090 1 (dsDNA)
DNA 1: TGATTTAGGACATTTGTTTGATAGTGG
DNA 2: CCACTATCAAACAAATGTCCTAAATCA
B8: SP_1433 (dsDNA)
DNA 1: GTAATTATAACAGATGTATAATAGAAA
DNA 2: TTTCTATTATACATCTGTTATAATTAC
B9: Enterococcus hirae CopY E86D (natural protein)
chain: MEEKRVLIKISDSEWEVMRVIWTLGQANAQQITQILADSMDWKVATVKTLLGRLVKKEALWTEQEGKKFIYHPAVSEMENVRSATDNLFSHICAKRVGATIADLVEEATLTQEDIQQIMKQLNKKEPVETIECNCIPGQCECKKQ
notes: CopY, cop operon repressor, Enterococcus hirae; cloned from genomic DNA; the methods call the gene copR; The wild type was cut by TEV inside the protein and was used uncleaved; also called E. hirae cop repressor; cleaved E86D protein; source: recombinant (pMCSG7 vector), purified (IMAC, TEV cleavage, subtractive IMAC, SEC); not shown: His6, N-terminal, cleaved
B10: Streptococcus thermophilus CopY (natural protein, S. thermophilus, UniProt Q5M352 1-143, looked up)
chain: MLAISSAEWEVMRVLWAKGQATSSEIIEILAKKLDWSASTVKTLIGRLADKGYLTSQRQGRGFIYQASLGEDEAIFQALEAVFDKICLTKHSDLLGQLIAKTPMTQADVDKLQALLLAKVPVDQVVCDCVPGQCACGHHMEVN
notes: CopY (CopR-CopY family cop operon repressor), Streptococcus thermophilus; cloned from genomic DNA; also called S. thermophilus cop operon repressor; CopR-CopY; source: recombinant (pMCSG7 vector), purified (IMAC, TEV cleavage, subtractive IMAC, SEC); not shown: His6, N-terminal, cleaved

What follows are molecules tested against T1, CopY (S. pneumoniae) (Streptococcus pneumoniae, UniProt A0ACD7PQP7 1-131) (assay: BLI; BLI: 50 mM Tris pH 7.4, 150 mM NaCl, 4% glycerol, 1 mM TCEP, 0.1% BSA, 26 C; EMSA: Tris-borate without EDTA, 4 C, 5% PAGE). Details: protein: recombinant; tags: N-terminal 6xHis removed by TEV (pMCSG7; also tested uncleaved); chain copies: 2; label: 5' biotin on forward strand; blunt.

Molecule | Kd [nM]
B1 | 28.1 ± 0.2

The molecules below were run against CopY (S. pneumoniae) (Streptococcus pneumoniae (TIGR4?)) (UniProt A0ACD7PQP7) (assay: BLI). Details: BLI: 50 mM Tris pH 7.4, 150 mM NaCl, 4% glycerol, 1 mM TCEP, 0.1% BSA, 26 C; EMSA: Tris-borate without EDTA, 4 C, 5% PAGE.

Molecule | Kd [nM]
full palindrome (A13C) | 39.6
14 bases (14 of 21 repeat bases) | > 3000
E. hirae proximal operator | 164
16 bp (16 of 21 repeat bases kept: ATTGACAAATGTAGAT) | 360
19 bp (19 of 21 repeat bases) | 37.1
19 bp T to C (operator position 3) | 40.4

These molecules were tested against T1, CopY (S. pneumoniae) (assay: BLI; 3 uM CopY; BLI: 50 mM Tris pH 7.4, 150 mM NaCl, 4% glycerol, 1 mM TCEP, 0.1% BSA, 26 C; EMSA: Tris-borate without EDTA, 4 C, 5% PAGE). Details: protein: recombinant; tags: N-terminal 6xHis removed by TEV (pMCSG7; also tested uncleaved); chain copies: 2; label: 5' biotin on forward strand; blunt.

Molecule | binding result
B2 | no binding
B3 | no binding
B4 | no binding
B5 | no binding
B6 | no binding
B7 | no binding
B8 | no binding

These molecules were tested against Streptococcus pneumoniae CopY (S. pneumoniae) (assay: SEC; Superdex 200; 20 mM Tris (pH 8), 200 mM NaCl, 1 mM TCEP; elution volume compared to an SEC standard (Bio-Rad); on ice or at 4°C). Details: not given.

Molecule | stoichiometry N
Streptococcus pneumoniae CopY (natural protein) | 2

Target: the molecule itself
Experiment: as above
Details: not given

Molecule | stoichiometry N
B9 | 2
B10 | 2
